Experimental data taken from a protein production outcome set (Wang et al. 2014).

Assay: label from the status in PepcDB records

Row | Sequence | protein production
1 | MLKTTISPIFSSFTGKPKCSSKLFFRAFSKVVLQDTPPSARRNASTNLTTLHKGPPTSAYVHLPFCRKRCHYCDFPILALGMSSSSARPSNVYEEGKEDDPRITNYVNLLVREIKATRTDFDTNPNLETVFFGGGTPSLVPPKLVSLILETLSLNFGLSPDAEISMEMDPGTFDGQKLKDLMKLGVNRVSLGVQAFQDELLKACGRAHGVSQVYEAIEFVKECGVENWSMDLISSLPHQTLEMWEESLRLAIESQPNHVSVYDLQVEQGTKFGNLYTPGQSPLPSETQSAEFYKTASSMLRGAGYEHYEVSSYSRDGFKCKHNLIYWKNKPFYAFGLGSASYVGGLRFSRPRRLKEYTNYVADLENGAANWCGNGDVDLKDVATDILMLSFRTSKGLELKEFGEAFGSEVVKSICKVYEPYVESGHIVCLDDMRSEVMIDEFKTLVANDEVKIEDHVRYLRLKDPDGFLLSNELISLSFGVVAP | failed
2 | MLLDEIKRMSYDELKRLAEDIRKRITEVVLKNGGHLASNLGTIELTLALYRVFDPREDAIIWDTGHQAYTHKILTGRDDLFHTIRTFGGLSGFVTRRESPLDWFGTGHAGTSIAAGLGFEKAFELLGEKRHVVVVIGDGALTSGMALEALNQLKNLNSKMKIILNDNGMSISPNVGGLAYHLSKLRTSPIYLKGKKVLKKVLEKTEIGFEVEEEMKYLRDSLKGMIQGTNFFESLGLKYFGPFDGHNIELLEKVFKRIRDYDYSSVVHVVTKKGKGFTAAEENPTKYHSASPSGKPKMLSYSELLGHTLSRVAREDKKIVAITAAMADGTGLSIFQKEHPDRFFDLGITEQTCVTFGAALGLHGMKPVVAIYSTFLQRAYDQIIHDVALQNAPVLFAIDRSGVVGEDGPTHHGLFDINYLLPVPNMKIISPSSPEEFVNSLYTVLKHLDGPVAIRYPKESFYGEVESLLENMKEIDLGWKILKRGREAAIIATGTILNEVLKIPLDVTVVNALTVKPLDTAVLKEIARDHDLIITVEEAMKIGGFGSFVAQRLQEMGWQGKIVNLGVEDLFVPHGGRKELLSMLGLDSEGLTKTVLTYIKARSREGKV | failed
3 | MLLEPLKQLKQADARLNMTQGVLEGVVGEELGVLPGMDSIFSMLELERLVGFFRQATRKNHKGKPFDVIIYDGISTEETLRMIGLSSKTRLYAKYLRSLAEKTDLGRLTSPSIMRFVDESMNINSNKSPFDGMTSPAMWDTLERFLETGASAWRDPERFRSFLVMDPNNPMSVKAALRYWGCTVQAGSHVSGAFAISSSHLTSQIPKADFVPLPFASASVPFTITGLDWDKILLDQANSSIRELLSETVSHGTSLTQTVMFDTAKKLVTLFMPGFEKSEIKLYQYRGGSELLIEAGDQRRVIHLPSQIQGKVGGAKFVDRSLIVTMR | failed
4 | MLLFWLEFIGIFIAIFVSAELLAKGADELEDFLGQGITGGIILGFLTALPETIFVIVASLEGSFDVALGSAIGGNVLLFTLGIGLVGVFYAFKWRTALQISSEYSVENVFLVLTTIGMLLVLIYGKLNIISGLLLILIYVIYVVYRVAKFRREGMEREKGNLMKPVGFIIAGGVLLVVFSHYFVEYINEIAIMFNVPAIWLSLVIAPIAGELEEKISAFRLVLMSKDGGSLSILSFVGSKIENATVLLGIIGIFTDYELQQALPEYASSLIANMIALYVLFDKRLKTFESVILIGVYVIIVILSFYL | failed
5 | MLLFWVEFIGTFIGLFISAELIAKGADELEEVLGQGITGGILLGFITALPETIFVIIASLGGSLDVAFGSAIGGNILLFTVGAGLVGIVYFWKWKNNLVMDQEYQVENKFLIISTVALVLITLYSKLNVIAGVCLILIYVYYVIYRLRKFKRDKPIAKKEVDYVKISIFMVVGAILLIILSHYFVEQLDQISLSFGIPAVWISLVLSPIAGELEEKISAFRLITLSKKGGSLSLLSFVGSKIENNTVLLGIIGLFGDYSLRPVIPEMVSLILVNVSVLRVLFDRKLTVLESSLLIIAYAVIIIALYYL | failed
6 | MLLGSCWRIARGVETVPYPWPKWLPIPVLATTVGVAAVVIGVRQLGLLQPSELSLYDFYVRSQPPRDPDSRILTVLVTEQDIQAQKTWPLPDATVAELLTRLNAASPRAIGLDIFRDLPQPPGHDELQNMIRINPRIIPVCKSPGETVEQPEVPPPPSIPTAQVPERVGFADIPLDSDGVIRRNLFVINNPKAQRCTTPFSFALMLALRYLEQDPSQTIKLDDKGLTLNDVHFPLLTSDAGGYVAVDDRGMQTLLKYRSRTAVGPTVSLTDVLTGRVSEDLIRDRVVLIGVSAPSIKDTFLTPYSGSDAVTQQMPGVVVHGQMVSQFLSAALEGEGPIWYWPVPLVLGWILLWAGVGSILGWWLRQPLWLGGAVVGGIIVLFGGGFGIFVMASGWIPVVPPAIALVLSSVGMVGYVSYQAQQEQKSFREKVQEQEKALALLRSLMAEDTAALNAALREPTEITGKPRSLLSGRYKIQKVLGSGGFGRTYLAQDTQRPGNPLCVVKHLRPGRTDERFMQVARRLFNTEAEILEKLGRHDQIPLLLAYVEENREFYLVQEFIDGVSLSEELKRKHTEAEAIQLLREILEVLNFVHSHYVIHRDIKPDNIIRRASDRKLVLIDFGAVKQIQPQEAERTQGSTVVIGTMGYAPPEQLSGQPTLSSDIYAVGMIVLQALTGIKPRDLPRDPRTGEVDWQQCVTVSEGLAVVLNKMVKFNFSDRYPSAKEALQDARRLGTPAASVS | failed
7 | MLLILAILPIVVTVGLGVFAGLRHQFAPTTSDILIQLVMHYALPLSLFGGILSLKRATIIQNSSVALWLALGMLGGMVIVIVSQCCFHQQLETGTLRALVIASPSIPFMGVSVLLVVFGKISVLLVALGGLYMNLVQVPVSVLLLTLAGGSTPEQRWRAGWQKLCRASRQPVVWAPISAFLLNLAGLRLPSAWLTNFTELGQAAGGVALFALGLLLTTRPWRLTRMVVLNVLLKNLGLPVLIWGIMASLGVSLSNQQLVVLTLAIPTATIATMLAVQNHLAPDEYVATQMLSTVIAPLTMGFLMWGLQLV | failed
8 | MLLLSIYISIAIGISFICSVLEAVLLSISPSYIAQLNQQGHPAAEQLSKLKSDIDRPLASILTLNTIAHTIGAATAGAQAAVVFGSEALGIFSAVLTLAILVLSEIVPKTIGATYWRQLAPAAAVSLRWMVWALTPFVWFSEQITKRLARNHEAPKMRDELSAMAILARESGEFAEGESKILSNLLGIQDVPVTQVMTPRPVVFRVDATMTINEFLDKHKDTPFSRPLVYSEQKDNIIGFVHRLELFKMQQSGSGQKQLGAVMRPIQVVLNNTALPKVFDQMMTHRLQLALVVDEYGTVLGLVTLEDIFEHLVGEEIIDEADKSTDMQELAYQRWESWKEMHGVIESRDDDDEELEKQNVEPETQEPTKPDSKES | failed
9 | MLLTQYEKYKRGFKFDHVWPILKGIEKFANDNMMTPASSPSPGMNSIDLNMDSEDANFSLSSRPMGLKKTKLKQLLEQNDKLIKAITKGTSERNEIQRQKIEVDRMKEENKILFADLNSISDPSSRAYIENERKRILEKRAQTNQHEEDGEGSQYHGSQYRASHYQESPSHGKQVQGEPDQGEDQRSPNNQEDFTQYYNYLSGTENIFP | failed
10 | MLLYIHVPFCRRKCRYCAFHSLPLIGEGGTSPAPEALQTPHADTAITAGPTAASTALAGVAPVTPSAQAISGQDGHTSTKGHGVPPESPPGPTANAAGMSGGIAGIVDRAGGAMRSCTPAEALPAYVETLFSELALWGDRLGNATVETIFFGGGTPSLLPPHVVAAILDRVHRTFSVAPGAEISLEANPESLSNRQQARGLYDAGVNRLSLGVQALDDALLHLMGRPHRARDAIRAFNAARDAGFTNISLDFIWGLPGQRLRQWLDQLREVVRLRPEHLSCYGLTLEEGTPLTADVESGSIALPVEREQAAMFMQGAERLEEAGYLQYEISNFARMGFQCHHNLGYWEGRDYLGLGPSATSTIDGLRWTNPYDHGAWHESVRTGRIGADAERLDLTVRVLELVMLRLRTTRGLRVKAYRELTGRDFLRDHKPLVHLLHRNGLVRIRDGYLRLTRNGMLVSNSILERFFERSETLLTLESTEKTHETRMAGPISGDTP | failed
11 | MLMTLAATTSVSFNSKLLLFRIRCSDSNPKRGFGSKKEEKDPALQQRKSSSKQSVSVPRKAPGLNTQFEGKSGRSFDIDFDERLENIRRSALEQKKTEVVKEFGPIDYDAPVKSDQKTIGLGTKVGVGIAVVVFGLVFALGDFLPTGSDSPTKNTTVVKNQISEEEKATLQQRLKEFETTLNGTPQDQAALEGAAVTLTELGDYSRAAAFLEKLAKERPTDPDVFRLLGEVNYELNNYEGSIAAYKISEKVSKGIDLEVTRGLMNAYLAAKKPDEAVKFLLDTRERLNTKKTSTTDSVTDETNLDPIQVELLLGKAYSDWGHISDAIAVYDQLISAHPEDFRGYLAKGIILRENGSRGDAERMFIQARFFAPNKAKALVDRYSKL | failed
